Measured values published in patent US7255985B2, “Fluorine NMR spectroscopy for biochemical screening” (Pfizer Italia S.r.l., priority 2003, dated 2007).
Values belong to the molecule of their own block, whether it stands above or below them. Non-standard residues stand in square brackets, D forms with d. No end group written: not given here. *: point of attachment. Phe(3-CF3) = N[C@@H](Cc1cccc(C(F)(F)F)c1)C(=O)O; Tfa = O=C(C(F)(F)F)*

Tests used:
Type in all cases: biochemical
[1] = molecular target: T1, protein Ser/Thr kinase AKT1 (Homo sapiens, UniProt P31749); test: 19F NMR assay of phosphorylation of CF3-labeled peptide by AKT1
T1 construct: baculovirus coding for the full length protein fused to GST at the N-terminus; GST (N, cleaved yes); made in house; host or cells: Sf21 insect cells (baculovirus), treated with okadaic acid before harvest
Protocol: D2O was added to the solutions (8% final concentration) for the lock signal.

[2] = molecular target: T2, trypsin from bovine pancreas (Bos taurus, UniProt P00760); test: 19F NMR assay of cleavage of CF3-labeled peptide by trypsin; details: 15 nM trypsin
T2 construct: purchased Roche Molecular Biochemical 1418025; host or cells: bovine pancreas
T2 sequence (P00760 24-246): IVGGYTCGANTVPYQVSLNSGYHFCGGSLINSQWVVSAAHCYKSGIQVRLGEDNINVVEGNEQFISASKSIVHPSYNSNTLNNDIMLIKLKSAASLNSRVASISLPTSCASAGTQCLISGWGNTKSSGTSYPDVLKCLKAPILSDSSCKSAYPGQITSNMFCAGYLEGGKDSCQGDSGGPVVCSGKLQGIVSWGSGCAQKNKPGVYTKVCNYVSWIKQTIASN
Protocol: FIG. 4 provides the screening of proteases, where the substrate is the peptide of Seq ID NO:2 and the protein is trypsin from bovine pancreas. ^19F NMR spectra for the peptide in the absence (a) and in the presence (b–e) of trypsin. The reaction was run at 22° C. and quenched after 30 minutes with the addition of 0.5 mM phenylmethylsulfonyl fluoride (PMSF). The reaction was performed in the absence of compound (b), in the presence of a five compound mixture (2-amino-6 methylquinazolin-4 ol, ethyl 2-quinoxalinecarboxylate, 5-methyl-benzimidazole, methyl isoquinoline-3-carboxylate, and leupeptin) (c), in the presence of the same mixture without leupeptin (d), and in the presence of only leupeptin (e). The protein, peptide, and compound concentrations were 15 nM, 30 μM, and 20 μM, respectively. A total of 128 scans with 2.8 s repetition time were recorded for each spectrum (6 minute measuring time). Pep and C-pep are the substrate and the product respectively.
The method of the present invention can also be applied to many different types and subtypes of enzymes (e.g. proteases, phosphatases, ligases, etc.). […]
All NMR spectra were recorded at 20° C. with a 600 NMR spectrometer operating at a ^19F Larmor frequency of 564 MHZ. […]

[3] = molecular target: T3, p21-activated kinase PAK4 (Homo sapiens, UniProt O96013); test: 19F NMR assay of CF3-labeled peptide with PAK4 (protein function)
T3 construct: GST (cleaved yes); made in house; host or cells: Escherichia coli
Protocol: FIG. 5 provides the 19F spectra of the peptide of Seq ID NO:2 in the presence of three different proteins, 25 nM AKT1 (FIG. 5A top), 15 nM trypsin (FIG. 5B middle) and 150 nM PAK4 (FIG. 5C bottom). […] The chemical shift of the cleaved peptide is quite different when compared to the chemical shift of the phosphorylated peptide.
In another embodiment of the present invention, three different proteins, AKT1, Trypsin, and p-21 activated protein (PAK4) were incubated with the CF3-labeled peptide of Seq ID NO:2. […] A higher concentration of the protein with unknown function and a longer incubation period may be required because the substrate may not be optimal for the protein with unknown function. The speed of the enzymatic reaction of PAK4 is only 1/22 of the speed of AKT1, therefore, the period of time for the reaction in the presence of PAK4 was longer than the period of time for the reaction in the presence of AKT1. The method of the present invention is also applicable to activated enzymes.
The serine/threonine p21-activated kinase PAK4 was expressed as a GST fusion protein in Escherichia coli and purified to homogeneity after removal of the GST tag.
All NMR spectra were recorded at 20° C. with a 600 NMR spectrometer operating at a ^19F Larmor frequency of 564 MHZ. A 5 mm probe tunable to either 19F or ^1H frequency was used. […]

T1 sequence (P31749 whole entry, the tested form may be a part): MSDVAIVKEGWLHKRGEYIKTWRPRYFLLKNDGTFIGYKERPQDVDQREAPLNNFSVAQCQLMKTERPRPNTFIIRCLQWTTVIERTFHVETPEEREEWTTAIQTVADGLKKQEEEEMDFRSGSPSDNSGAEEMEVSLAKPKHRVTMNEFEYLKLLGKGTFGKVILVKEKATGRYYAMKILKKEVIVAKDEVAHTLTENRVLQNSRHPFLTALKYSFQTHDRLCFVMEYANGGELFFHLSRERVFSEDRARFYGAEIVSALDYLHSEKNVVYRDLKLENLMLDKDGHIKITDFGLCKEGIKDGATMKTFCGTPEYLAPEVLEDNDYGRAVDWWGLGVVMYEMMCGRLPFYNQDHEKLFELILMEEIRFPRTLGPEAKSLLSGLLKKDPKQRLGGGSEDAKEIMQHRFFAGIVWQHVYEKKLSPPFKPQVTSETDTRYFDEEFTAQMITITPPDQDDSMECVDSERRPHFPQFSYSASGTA
T3 sequence (O96013 whole entry): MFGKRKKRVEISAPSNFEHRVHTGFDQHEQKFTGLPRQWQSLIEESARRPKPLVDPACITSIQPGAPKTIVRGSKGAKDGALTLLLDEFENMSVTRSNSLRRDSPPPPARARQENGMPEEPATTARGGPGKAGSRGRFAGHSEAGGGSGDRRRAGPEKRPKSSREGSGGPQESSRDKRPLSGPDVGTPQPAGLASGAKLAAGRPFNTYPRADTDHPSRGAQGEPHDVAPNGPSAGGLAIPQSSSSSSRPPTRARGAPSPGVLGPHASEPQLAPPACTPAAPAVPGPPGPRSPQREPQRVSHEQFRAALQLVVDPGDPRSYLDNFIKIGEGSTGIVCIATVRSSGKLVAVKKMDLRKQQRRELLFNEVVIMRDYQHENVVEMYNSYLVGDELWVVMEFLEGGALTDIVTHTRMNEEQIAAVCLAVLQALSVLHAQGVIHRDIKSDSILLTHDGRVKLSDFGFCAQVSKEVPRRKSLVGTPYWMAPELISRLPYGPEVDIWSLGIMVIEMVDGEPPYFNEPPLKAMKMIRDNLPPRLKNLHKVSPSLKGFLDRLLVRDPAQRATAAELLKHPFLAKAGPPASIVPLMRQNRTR

Molecule: O=S(=O)(NCCNC/C=C/c1ccc(Br)cc1)c1cccc2cnccc12 [H89]
inhibition of peptide phosphorylation ([1]; reaction in the presence of only H89 (deconvolution of five molecule mixture)): inhibitory effect over peptide phosphorylation

Km ([1]; 40 nM protein, 30 μM substrate peptide, 22° C., quenched after 60 minutes, read-out: KM / binding constant for ATP): 89 µM
Molecule: Nc1ncnc2c1ncn2[C@@H]1O[C@H](COP(=O)(O)OP(=O)(O)OP(=O)(O)O)[C@@H](O)[C@H]1O [ATP]

Molecule: CN[C@@H]1C[C@H]2O[C@@](C)([C@@H]1OC)n1c3ccccc3c3c4c(c5c6ccccc6n2c5c31)C(=O)NC4 [staurosporine]
formation of phosphorylated peptide in the presence of inhibitor ([1]; 10 μM Staurosporine, 50 nM protein, 30 μM peptide, 131 μM ATP): did not result in any formation of phosphorylated peptide

Molecule: CC(=O)N[C@@H](CC(C)C)C(=O)N[C@@H](CC(C)C)C(=O)N[C@H](C=O)CCCNC(=N)N [leupeptin, reference compound]
inhibition of peptide cleavage by trypsin (cleaved peptide signal) ([2]; 20 μM compound, 30 μM peptide, 22° C., quenched after 30 minutes): missing cleaved peptide signal

speed of the enzymatic reaction of PAK4 relative to AKT1 ([3]; ratio to speed of AKT1): 1/22 | substrate quality for trypsin [2]: good substrate | substrate quality for AKT1 ([1]; 25 nM AKT1): good substrate
Molecule: ARKRERAF(3-CF3)SFGHHA (ARKRERA[Phe(3-CF3)]SFGHHA) [peptide of Seq ID NO:2, CF3-labeled peptide substrate for trypsin, AKT1 and PAK4]
19F signal after reaction with PAK4 ([3]; 150 nM PAK4): appearance of a signal at the chemical shift of the phosphorylated peptide

time after which the enzymatic reaction is complete ([1]; 50 nM protein, 30 μM peptide, 131 μM ATP, no inhibitor): 149 min
Molecule: CF3—CO-ARKRERAYSFGHHA (Tfa-ARKRERAYSFGHHA) [CF3-labeled peptide of Seq ID NO:1, AKTide, 14 aminoacid peptide labeled with CF3 by N-terminal capping with trifluoroacetic anhydride]
